Data on five substances can be found in US20150057236.

Marks after values point to notes of the source that are not given here.

The subject of data set [1] is H3K9 acetyl peptide.
Data set [2] concerns H3K9 malonyl peptide.
For data set [3], the system named is H3K9 succinyl peptide.
Data set [4] has as its system ACS2 K628 (623-632 + WW) acetyl peptide.
For data set [5], the system named is ACS2 K628 (623-632 + WW) malonyl peptide.
In data set [6] the test system is ACS2 K628 (623-632 + WW) succinyl peptide.
In data set [7] the target is GDH K503 (498-509 + WW) acetyl peptide (UniProt P00367).
For data set [8], the target named is GDH K503 (498-509 + WW) malonyl peptide (UniProt P00367).
Data set [9] addresses GDH K503 (498-509 + WW) succinyl peptide (UniProt P00367).
Data set [10] addresses H3 K9 (4-13 + WW) acetyl peptide (UniProt P68431).
In data set [11] the target is H3 K9 (4-13 + WW) malonyl peptide (UniProt P68431).
In data set [12] the target is H3 K9 (4-13 + WW) succinyl peptide (UniProt P68431).
Data set [13] relates to KQTAR(SuK)-AMC peptide.

Sequence of Sirt5 Y102F (chain, as listed by the source Y102F): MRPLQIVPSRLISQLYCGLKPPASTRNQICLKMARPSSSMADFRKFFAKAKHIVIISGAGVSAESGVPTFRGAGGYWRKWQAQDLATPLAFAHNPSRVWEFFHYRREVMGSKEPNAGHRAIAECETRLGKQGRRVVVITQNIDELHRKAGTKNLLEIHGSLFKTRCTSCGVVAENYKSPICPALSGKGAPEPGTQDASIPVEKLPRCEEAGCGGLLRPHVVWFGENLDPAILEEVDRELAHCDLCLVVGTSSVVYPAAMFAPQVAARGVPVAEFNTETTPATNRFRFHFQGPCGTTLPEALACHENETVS
Sequence of human Sirt5 (chain, as listed by the source): as the sequence (chain, as listed by the source Y102F) above, with F102Y counted along it
Sequence of Sirt5 R105M (chain, as listed by the source R105M): as the sequence (chain, as listed by the source Y102F) above, with F102Y, R105M counted along it
Sequence of Sirt5 H158Y (chain, as listed by the source H158Y): as the sequence (chain, as listed by the source Y102F) above, with F102Y, H158Y counted along it

Consider human Sirt6, for which the “hydrolysis of acyl peptide (LC-MS)” value is “Sirt6 and Sirt7 have no detectable activity on acetyl, malonyl, or succinyl peptides under the conditions tested” in data set [1]; “Sirt6 and Sirt7 have no detectable activity on acetyl, malonyl, or succinyl peptides under the conditions tested” in [2]; “Sirt6 and Sirt7 have no detectable activity on acetyl, malonyl, or succinyl peptides under the conditions tested” in [3].

In the case of human Sirt5, in [4], the “Peptide Km (µM), deacetylation” value was “ND (>750)” and the kcat/Km (s^-1M^-1), deacetylation is 18 s^-1M^-1. Besides, in [5], the Peptide Km (µM), demalonylation worked out at 150 µM; the kcat (s^-1), demalonylation stood at 0.079 s⁻¹; the kcat/Km (s^-1M^-1), demalonylation was 520 s^-1M^-1. Also, in data set [6], the Peptide Km (µM), desuccinylation came out at 450 µM; the kcat (s^-1), desuccinylation is 0.268 s⁻¹; the kcat/Km (s^-1M^-1), desuccinylation was determined as 600 s^-1M^-1. Also, in data set [7], the “Peptide Km (µM), deacetylation” value was “ND (>750)” and the kcat/Km (s^-1M^-1), deacetylation was < 2 s^-1M^-1. In [8], the Peptide Km (µM), demalonylation was determined as 8.7 µM; the kcat (s^-1), demalonylation was 0.014 s⁻¹; the kcat/Km (s^-1M^-1), demalonylation was 1600 s^-1M^-1. Further, in data set [9], the Peptide Km (µM), desuccinylation amounted to 14 µM; the kcat (s^-1), desuccinylation was determined as 0.028 s⁻¹; the kcat/Km (s^-1M^-1), desuccinylation was 2000 s^-1M^-1. Further, in data set [10], the “Peptide Km (µM), deacetylation” value is recorded as “ND (>750)” and the kcat/Km (s^-1M^-1), deacetylation was determined as 7.8 s^-1M^-1. Also, in [11], the Peptide Km (µM), demalonylation is 6.1 µM; the kcat (s^-1), demalonylation came to 0.037 s⁻¹; the kcat/Km (s^-1M^-1), demalonylation was determined as 6100 s^-1M^-1. Also, in data set [12], the Peptide Km (µM), desuccinylation was 5.8 µM; the kcat (s^-1), desuccinylation was 0.025 s⁻¹; the kcat/Km (s^-1M^-1), desuccinylation turned out to be 4300 s^-1M^-1. For the same substance, in data set [1], the “Km for acetyl peptide (µM)” value is recorded as “ND (>750)*”; the “Km for peptide (µM), deacetylation” value is “ND (>750)*”; the “hydrolysis of acyl peptide (LC-MS)” value is listed as “with Sirt5, very little hydrolysis of the acetyl peptide was observed”; the kcat/Km (s^-1M^-1) was found to be 2 s^-1M^-1. Besides, the kcat/Km (s^-1M^-1), deacetylation in data set [1] is 2 s^-1M^-1. For the same substance, the “hydrolysis of acyl peptide (LC-MS)” value in data set [2] was “the malonyl and succinyl peptides were hydrolyzed significantly”. For the same substance, in data set [3], the Km for peptide (µM), desuccinylation amounted to 41 µM; the “hydrolysis of acyl peptide (LC-MS)” value is “the malonyl and succinyl peptides were hydrolyzed significantly”; the kcat (s^-1), desuccinylation is 0.029 s⁻¹; the kcat/Km (s^-1M^-1), desuccinylation was 710 s^-1M^-1. Also, in data set [13], the “percent hydrolysis in 3 hrs, 1 µM Sirt5 (HPLC)” value was 10% and 60% hydrolysis by 1 and 5 µM of Sirt5 in 3 hrs; the “percent hydrolysis in 3 hrs, 5 µM Sirt5 (HPLC)” value is 10% and 60% hydrolysis by 1 and 5 µM of Sirt5 in 3 hrs.

Consider Sirt5 R105M, for which, in data set [1], the “Km for peptide (µM), deacetylation” value is “ND (>750)*” and the kcat/Km (s^-1M^-1), deacetylation came out at 0.5 s^-1M^-1. In [3], the “Km for peptide (µM), desuccinylation” value was “ND (>750)*” and the kcat/Km (s^-1M^-1), desuccinylation was found to be 0.9 s^-1M^-1.

As to Sirt5 H158Y, in data set [3], the “Km for peptide (µM), desuccinylation” value is “ND (>750)*” and the kcat/Km (s^-1M^-1), desuccinylation amounted to 75 s^-1M^-1.

For the substance Sirt5 Y102F, in data set [1], the “Km for peptide (µM), deacetylation” value is reported as “ND (>750)*” and the kcat/Km (s^-1M^-1), deacetylation is 2 s^-1M^-1. In addition, in data set [3], the “Km for peptide (µM), desuccinylation” value is listed as “ND (>750)*” and the kcat/Km (s^-1M^-1), desuccinylation worked out at 397 s^-1M^-1.
